The chains are these.
B1: CA45 (antibody, V domains shown)
VH: QVQLQEWGEGLVKPSETLSLTCAVYGGSISGYYHWNWIRLPPGKGLEWIGNIDGNSASTNYNPSLKTRVTISKDTSKNQISLKVRSLTAADTAVYYCARDPGFTIFGVVITSWSGLDSWGQGAVVTVSS
VL: DIQMTQSPSSLSASVGDTVTITCRASQSISNNLAWYQQRPRRAPQLLIYAASNLASGVPSRFSGSGSGTDFTLTISSLQAEDFAAYYCQQHNTLPLTFGGGTKVEIK
B2: c13C6 (antibody, V domains shown)
VH: DVKLLESGGGLVQPGGSLKLSCAASGFSLSTSGVGVGWFRQPSGKGLEWLALIWWDDDKYYNPSLKSQLSISKDFSRNQVFLKISNVDIADTATYYCARRDPFGYDNAMGYWGQGTSVTVS
VL: DIVMTQSPLSLSTSVGDRVSLTCKASQNVGTAVAWYQQKPGQSPKLLIYSASNRYTGVPDRFTGSGSGTDFTLTISNMQSEDLADYFCQQYSSYPLTFGAGTKLELR
B3: ADI-15878 (antibody, V domains shown)
VH: QVQLVQSGVTLVQPGGSLRVSCAASGFTFSSYAMSWVRQAPGKGLEWVSAISGLGGSTYYADSVKGRFTISRDNSKNTLYLQMNSLRAEDTAVYYCAKDHRVWAAGYHFDYWGQGALVTVSS
VL: DIVLTQSPSTLSASVGDRVTITCRASQSISSWLAWYQQKPGEAPKLLISDASSLESGVPSRFSGSGSGTEFTLTISSLQPDDFATYYCQQYYSSPTFGGGTKVEIK
B4: mAb114 (antibody, V domains shown)
VH: EVQLVESGGGLIQPGGSLRLSCAASGFALRMYDMHWVRQTIDKRLEWVSAVGPSGDTYYADSVKGRFAVSRENAKNSLSLQMNSLTAGDTAIYYCVRSDRGVAGLFDSWGQGILVTVSS
VL: DIQMTQSPSSLSASVGDRITITCRASQAFDNYVAWYQQRPGKVPKLLISAASALHAGVPSRFSGSGSGTHFTLTISSLQPEDVATYYCQNYNSAPLTFGGGTKVEIK
B5: KZ52 (antibody, V domains shown)
VH: EVQLLESGGGLVKPGGSLRLSCAASGFTLINYRMNWVRQAPGKGLEWVSSISSSSSYIHYADSVKGRFTISRDNAENSLYLQMNSLRAEDTAVYYCVREGPRATGYSMADVFDIWGQGTMVTVSS
VL: not shown
B6: ADI-15946 (antibody, V domains shown)
VH: EVQLVESGGGLVKPGGSLRLSCAASGFTFSNAWMSWVRQAPGKGLEWVGRIKSKTDGGTIDYAAPVKGRFTISRDDSKNTVYLQMTSLKTEDTAVYYCTTYTEDMRYFDWLLRGGETFDYWGQGTLVTVSS
VL: DIRLTQSPSSLSASVGDRVTITCRASHYISTYLNWYQQKPGKAPKLLIYAASNLQSGVPSRFSGSGFGTDFSLTISSLQPEDFATYHCQQSYSTPGRYTFGQGTKVEIK
B7: mAb100 (antibody, V domains shown)
VH: QVQLQESGPGLVKPSDTLSLTCTVSGGSLSSFYWSWIRQPPGKGLEWIGYIYYSGSPNYSPSLESRVTMSVDTTRNQISLKLDSVTAADTAVYYCVRASRSYYWGSYRPTAFDSWGQGTLVTVSS
VL: SYELTQPLSVSVSPGQTAIFTCSGDNLGDKYVCWFQQRPGQSPMLLIYQDNKRPSGIPERFSGSNSGNTATLTISGTQSTDEADYYCQTWDSTVVFGGGTKLTVL
B8: c2G4 (antibody, V domains shown)
VH: EVQLQESGGGLMQPGGSMKLSCVASGFTFSNYWMNWVRQSPEKGLEWVAEIRLKSNNYATHYAESVKGRFTISRDDSKRSVYLQMNTLRAEDTGIYYCTRGNGNYRAMDYWGQGTSVTVS
VL: DIQMTQSPASLSVSVGETVSITCRASENIYSSLAWYQQKQGKSPQLLVYSATILADGVPSRFSGSGSGTQYSLKINSLQSEDFGTYYCQHFWGTPYTFGGGTKLEIK
B9: c4G7 (antibody, V domains shown)
VH: EVQLQESGPELEMPGASVKISCKASGSSFTGFSMNWVKQSNGKSLEWIGNIDTYYGGTTYNQKFKGKATLTVDKSSSTAYMQLKSLTSEDSAVYYCARSAYYGSTFAYWGQGTLVTVS
VL: DIQMTQSPASLSASVGETVTITCRASENIYSYLAWYQQKQGKSPQLLVYNAKTLIEGVPSRFSGSGSGTQFSLKINSLQPEDFGSYFCQHHFGTPFTFGSGTELEIK

This assay deals with GP[change] (Zaire ebolavirus | , UniProt Q05320). As to the kind of experiment: BLI.
Molecule B1 had a Kd of under 1 pM. Turning to B2, the Kd is under 1 pM.

Take B3: the dissociation constant Kd is under 1 pM.

B4 had a Kd of under 1 pM.

Turning to B5, the Kd is under 1 pM. The molecule B6 had a Kd of under 1 pM. B7 came in with a Kd of under 1 pM. The molecule B8 came in with a dissociation constant (Kd) of under 1 pM. B9 gave a Kd of under 1 pM.
